Measured values published in paper PMC7382298 (Immunity, 2020).

Tests used:
[1] = target: T1, GST-Mouse full-length GSDMD harboring L361A/V367A/L370A mutations (3A mutant) (mouse, UniProt Q9D8T2 1-487, L361A | V367A | L370A); assay: pull-down
T1 sequence (looked up): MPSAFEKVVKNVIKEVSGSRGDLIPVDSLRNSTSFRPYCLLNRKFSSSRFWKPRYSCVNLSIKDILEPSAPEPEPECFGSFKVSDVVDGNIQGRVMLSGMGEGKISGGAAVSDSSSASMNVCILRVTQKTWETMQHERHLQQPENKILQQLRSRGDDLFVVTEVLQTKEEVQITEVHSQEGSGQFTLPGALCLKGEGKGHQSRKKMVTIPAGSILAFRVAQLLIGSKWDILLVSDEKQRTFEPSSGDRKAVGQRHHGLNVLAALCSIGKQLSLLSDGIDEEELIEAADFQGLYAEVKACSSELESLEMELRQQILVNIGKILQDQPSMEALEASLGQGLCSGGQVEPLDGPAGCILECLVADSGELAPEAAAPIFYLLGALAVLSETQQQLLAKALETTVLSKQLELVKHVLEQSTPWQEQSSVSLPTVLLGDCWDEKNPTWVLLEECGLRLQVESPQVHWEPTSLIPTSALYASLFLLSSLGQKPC

[2] = target: T2, GST-Mouse full-length GSDMD harboring E369K/L370A mutations (mouse, UniProt Q9D8T2 1-487, E369K | L370A); assay: pull-down
T2 sequence (looked up): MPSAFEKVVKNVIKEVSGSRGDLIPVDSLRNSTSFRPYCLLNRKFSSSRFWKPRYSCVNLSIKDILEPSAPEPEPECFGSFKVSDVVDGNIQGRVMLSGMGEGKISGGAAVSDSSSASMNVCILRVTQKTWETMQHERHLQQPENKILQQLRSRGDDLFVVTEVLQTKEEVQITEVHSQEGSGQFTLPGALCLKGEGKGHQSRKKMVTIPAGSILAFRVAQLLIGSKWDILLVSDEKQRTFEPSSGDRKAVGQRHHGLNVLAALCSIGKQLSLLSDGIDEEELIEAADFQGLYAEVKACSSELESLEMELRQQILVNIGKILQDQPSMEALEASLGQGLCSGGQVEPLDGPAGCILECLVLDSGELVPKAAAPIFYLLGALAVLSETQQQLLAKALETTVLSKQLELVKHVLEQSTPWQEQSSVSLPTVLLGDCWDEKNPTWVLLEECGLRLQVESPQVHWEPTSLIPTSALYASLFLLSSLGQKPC

[3] = target: T3, GST-Human full-length wild type GSDMD (human, UniProt P57764 1-484); assay: pull-down
T3 sequence (looked up): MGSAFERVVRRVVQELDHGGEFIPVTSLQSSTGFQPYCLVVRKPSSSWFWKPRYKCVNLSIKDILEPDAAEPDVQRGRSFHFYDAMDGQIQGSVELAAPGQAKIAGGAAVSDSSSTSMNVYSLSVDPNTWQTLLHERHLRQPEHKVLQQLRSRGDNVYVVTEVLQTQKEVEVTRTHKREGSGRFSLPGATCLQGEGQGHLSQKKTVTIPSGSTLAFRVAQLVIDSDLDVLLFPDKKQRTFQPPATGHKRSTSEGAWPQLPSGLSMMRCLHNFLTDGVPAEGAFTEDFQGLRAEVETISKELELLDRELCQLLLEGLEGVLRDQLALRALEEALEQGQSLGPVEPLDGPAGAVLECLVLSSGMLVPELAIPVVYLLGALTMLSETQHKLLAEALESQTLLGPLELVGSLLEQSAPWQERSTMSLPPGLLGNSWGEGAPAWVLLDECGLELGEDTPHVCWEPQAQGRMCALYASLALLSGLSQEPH

[4] = target: T4, GST-Mouse full-length GSDMD harboring V367A/E369K mutations (mouse, UniProt Q9D8T2 1-487, V367A | E369K); assay: pull-down
T4 sequence (looked up): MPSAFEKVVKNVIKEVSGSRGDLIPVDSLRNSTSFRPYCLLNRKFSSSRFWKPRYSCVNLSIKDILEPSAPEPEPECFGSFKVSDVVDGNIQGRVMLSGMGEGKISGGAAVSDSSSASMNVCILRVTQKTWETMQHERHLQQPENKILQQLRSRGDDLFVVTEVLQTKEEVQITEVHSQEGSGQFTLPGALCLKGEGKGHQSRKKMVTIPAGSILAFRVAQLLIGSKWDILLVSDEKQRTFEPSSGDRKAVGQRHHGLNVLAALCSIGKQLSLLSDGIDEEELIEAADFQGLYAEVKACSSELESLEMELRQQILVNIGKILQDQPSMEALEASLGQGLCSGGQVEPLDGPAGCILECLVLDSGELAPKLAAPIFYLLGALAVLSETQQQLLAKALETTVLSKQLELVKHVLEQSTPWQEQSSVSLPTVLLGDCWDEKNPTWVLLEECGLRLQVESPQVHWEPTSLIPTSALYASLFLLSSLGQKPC

[5] = target: T5, GST-Mouse full-length GSDMD harboring L306A/L310A mutations (2A mutant) (mouse, UniProt Q9D8T2 1-487, L306A | L310A); assay: pull-down
T5 sequence (looked up): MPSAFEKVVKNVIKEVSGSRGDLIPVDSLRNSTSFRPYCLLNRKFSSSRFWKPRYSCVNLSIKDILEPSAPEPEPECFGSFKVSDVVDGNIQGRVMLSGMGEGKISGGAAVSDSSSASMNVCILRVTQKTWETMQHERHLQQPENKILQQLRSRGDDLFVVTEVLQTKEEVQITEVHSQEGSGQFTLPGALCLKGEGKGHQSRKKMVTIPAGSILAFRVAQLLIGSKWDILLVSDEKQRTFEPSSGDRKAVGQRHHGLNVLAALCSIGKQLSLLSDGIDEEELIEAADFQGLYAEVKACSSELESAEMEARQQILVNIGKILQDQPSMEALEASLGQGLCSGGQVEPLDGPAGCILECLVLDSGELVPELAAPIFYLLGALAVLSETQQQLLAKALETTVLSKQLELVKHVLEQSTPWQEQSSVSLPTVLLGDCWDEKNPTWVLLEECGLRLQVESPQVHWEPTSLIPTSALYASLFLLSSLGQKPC

[6] = target: T6, GST-Human GSDMD harboring truncation of residues 243-278 (human, UniProt P57764 1-484, truncation of residues 243-278); assay: pull-down
T6 sequence (looked up): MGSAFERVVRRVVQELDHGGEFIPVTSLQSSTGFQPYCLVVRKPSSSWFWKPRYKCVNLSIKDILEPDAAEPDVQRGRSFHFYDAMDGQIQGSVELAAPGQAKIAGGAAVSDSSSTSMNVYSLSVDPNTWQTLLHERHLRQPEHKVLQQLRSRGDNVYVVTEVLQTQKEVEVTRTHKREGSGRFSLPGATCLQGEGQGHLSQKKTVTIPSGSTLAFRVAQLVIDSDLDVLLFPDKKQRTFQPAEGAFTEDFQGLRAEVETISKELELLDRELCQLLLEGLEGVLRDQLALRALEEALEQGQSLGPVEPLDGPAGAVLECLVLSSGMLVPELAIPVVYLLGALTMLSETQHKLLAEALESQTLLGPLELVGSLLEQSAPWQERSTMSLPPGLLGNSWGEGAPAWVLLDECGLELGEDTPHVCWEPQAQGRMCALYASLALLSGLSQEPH

[7] = target: T7, GST-Mouse full-length wild type GSDMD (mouse, UniProt Q9D8T2 1-487); assay: pull-down
T7 sequence (looked up): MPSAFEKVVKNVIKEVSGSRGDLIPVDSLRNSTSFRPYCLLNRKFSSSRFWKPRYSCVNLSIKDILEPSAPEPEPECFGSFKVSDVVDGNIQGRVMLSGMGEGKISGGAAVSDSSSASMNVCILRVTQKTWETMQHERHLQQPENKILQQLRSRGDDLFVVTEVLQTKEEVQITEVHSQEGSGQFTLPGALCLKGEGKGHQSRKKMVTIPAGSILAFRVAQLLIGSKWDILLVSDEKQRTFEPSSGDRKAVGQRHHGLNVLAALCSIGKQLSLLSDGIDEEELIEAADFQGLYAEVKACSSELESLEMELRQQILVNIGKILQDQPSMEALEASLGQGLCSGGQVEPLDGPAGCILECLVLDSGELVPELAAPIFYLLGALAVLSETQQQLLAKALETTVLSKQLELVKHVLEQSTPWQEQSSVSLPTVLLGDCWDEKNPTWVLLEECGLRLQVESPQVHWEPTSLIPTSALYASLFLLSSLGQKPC

[8] = target: the molecule itself; assay: crystal structure
[9] = target: T8, mouse full-length wild type gasdermin D (mGSDMD) (mouse, UniProt Q9D8T2 1-487); assay: SEC
T8 sequence (looked up): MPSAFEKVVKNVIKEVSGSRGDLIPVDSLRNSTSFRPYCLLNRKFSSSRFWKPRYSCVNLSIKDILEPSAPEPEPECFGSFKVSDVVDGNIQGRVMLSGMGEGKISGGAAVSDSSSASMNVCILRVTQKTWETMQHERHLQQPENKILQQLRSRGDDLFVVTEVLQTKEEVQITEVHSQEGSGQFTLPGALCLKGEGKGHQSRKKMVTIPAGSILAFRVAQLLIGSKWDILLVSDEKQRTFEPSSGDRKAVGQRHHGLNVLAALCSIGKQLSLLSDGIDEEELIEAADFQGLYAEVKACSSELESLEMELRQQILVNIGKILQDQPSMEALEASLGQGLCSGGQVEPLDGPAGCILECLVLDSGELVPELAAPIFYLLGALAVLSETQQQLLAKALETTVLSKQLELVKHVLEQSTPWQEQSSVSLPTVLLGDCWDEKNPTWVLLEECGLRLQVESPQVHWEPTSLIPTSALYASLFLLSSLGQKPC

[10] = target: T9, human full-length wild type gasdermin D (hGSDMD) (human, UniProt P57764 1-484); assay: SEC
T9 sequence (looked up): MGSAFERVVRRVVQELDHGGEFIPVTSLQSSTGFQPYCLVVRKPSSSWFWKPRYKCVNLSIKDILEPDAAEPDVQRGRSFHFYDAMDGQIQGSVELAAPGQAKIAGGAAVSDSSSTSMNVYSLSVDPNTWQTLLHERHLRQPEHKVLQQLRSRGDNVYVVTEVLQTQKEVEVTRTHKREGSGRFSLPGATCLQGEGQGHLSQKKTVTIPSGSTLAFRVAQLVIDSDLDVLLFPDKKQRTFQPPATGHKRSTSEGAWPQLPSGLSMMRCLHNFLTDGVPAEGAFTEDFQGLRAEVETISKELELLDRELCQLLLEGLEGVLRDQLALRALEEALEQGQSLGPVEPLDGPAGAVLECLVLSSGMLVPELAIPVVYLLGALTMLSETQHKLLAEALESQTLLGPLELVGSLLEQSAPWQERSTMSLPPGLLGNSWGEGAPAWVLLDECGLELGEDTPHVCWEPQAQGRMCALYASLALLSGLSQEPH

[11] = target: T10, human GSDMD harboring truncation of residues 243-278 (human, UniProt P57764 1-484, truncation of residues 243-278); assay: SEC
T10 sequence (looked up): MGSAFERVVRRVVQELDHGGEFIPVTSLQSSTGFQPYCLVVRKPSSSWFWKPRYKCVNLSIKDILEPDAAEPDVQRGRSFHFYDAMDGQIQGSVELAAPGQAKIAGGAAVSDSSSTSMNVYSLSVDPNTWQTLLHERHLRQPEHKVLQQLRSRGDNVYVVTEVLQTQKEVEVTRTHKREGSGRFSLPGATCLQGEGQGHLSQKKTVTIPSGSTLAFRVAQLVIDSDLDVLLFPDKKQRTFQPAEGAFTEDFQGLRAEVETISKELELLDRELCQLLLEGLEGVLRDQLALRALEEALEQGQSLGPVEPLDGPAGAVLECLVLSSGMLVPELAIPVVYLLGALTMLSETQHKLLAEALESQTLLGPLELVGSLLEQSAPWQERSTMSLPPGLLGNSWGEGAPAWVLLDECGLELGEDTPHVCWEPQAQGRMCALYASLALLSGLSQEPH

Measured: binding result

B1: human caspase-1 (hCASP1) catalytic domain p22/p10, C285A mutant (enzyme)
chain 1: NPAMPTSSGSEGNVKLCSLEEAQRIWKQKSAEIYPIMDKSSRTRLALIICNEEFDSIPRRTGAEVDITGMTMLLQNLGYSVDVKKNLTASDMTTELEAFAHRPEHKTSDSTFLVFMSHGIREGICGKKHSEQVPDILQLNAIFNMLNTKNCPSLKDKPKVIIIQAARGDSPGVVWFKDSVGVSGNLSLPTTEEFEDD
chain 2: AIKKAHIEKDFIAFCSSTPDNVSWRHPTMGSVFIGRLIEHMQEYACSCDVEEIFRKVRFSFEQPDGRAQMPTTERVTLTRCFYLFPGH
binds: all assays above
